Data published in publication PMC10533412 (2023).
Changes are numbered by the printed parent chain. Values belong to the binder of their own block, whether it stands above or below them.

Legend:
BTN3A1 B30.2 = BTN3A1 B30.2 (Homo sapiens, UniProt O00481); assay: ITC
BTN3A3 B30.2 = BTN3A3 B30.2 (Homo sapiens, UniProt O00478); assay: ITC
BTN3A1 B30.2 domain = BTN3A1 B30.2 domain (human, UniProt O00481 328-513); assay: ITC; with HMBPP
Chain of BTN3A1 B30.2 domain (O00481 other isoform, or with tags, fused parts or gaps): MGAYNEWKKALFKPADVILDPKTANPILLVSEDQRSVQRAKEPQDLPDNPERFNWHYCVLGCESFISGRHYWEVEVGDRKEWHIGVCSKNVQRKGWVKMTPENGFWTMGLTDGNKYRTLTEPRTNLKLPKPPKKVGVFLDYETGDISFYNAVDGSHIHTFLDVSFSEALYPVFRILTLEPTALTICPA

Chain of BTN3A1 B30.2 (O00481 319-513): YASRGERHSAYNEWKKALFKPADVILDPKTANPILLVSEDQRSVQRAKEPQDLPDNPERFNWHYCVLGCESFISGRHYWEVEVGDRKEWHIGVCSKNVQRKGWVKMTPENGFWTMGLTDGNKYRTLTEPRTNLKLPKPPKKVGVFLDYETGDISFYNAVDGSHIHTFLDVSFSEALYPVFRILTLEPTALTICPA
Chain of BTN3A3 B30.2 (O00478 319-521): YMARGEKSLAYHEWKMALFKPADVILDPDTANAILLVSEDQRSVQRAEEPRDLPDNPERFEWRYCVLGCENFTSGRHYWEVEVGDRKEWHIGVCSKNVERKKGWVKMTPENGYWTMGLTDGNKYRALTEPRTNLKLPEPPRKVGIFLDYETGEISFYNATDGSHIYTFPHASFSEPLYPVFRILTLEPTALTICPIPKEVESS

B1: BTN2A1 B30.2 (protein)
chain: ELQVKEKLQEELRWRRTFLHAVDVVLDPDTAHPDLFLSEDRRSVRRCPFRHLGESVPDNPERFDSQPCVLGRESFASGKHYWEVEVENVIEWTVGVCRDSVERKGEVLLIPQNGFWTLEMHKGQYRAVSSPDRILPLKESLCRVGVFLDYEAGDVSFYNMRDRSHIYTCPRSAFSVPVRPFFRLGCEDSPIFICPALTGANGV
modifications: DMAPP
Kd (BTN3A1 B30.2): 12300 nM

B2: BTN2A1 B30.2 (protein)
chain: B1 chain
modifications: IPP
Kd (BTN3A1 B30.2): 155000 nM

The next lines start with the values.

Kd (BTN3A1 B30.2): 611 nM
B3: BTN2A1 B30.2 (protein)
chain: B1 chain
modifications: HMBPP

Kd (BTN3A3 B30.2): 460 nM
B4: BTN2A1 B30.2 (protein)
chain: B1 chain with R45H

Kd (BTN3A1 B30.2 domain): 600 nM
B5: BTN2A1 B30.2 domain (domain or fragment)
chain: EELRWRRTFLHAVDVVLDPDTAHPDLFLSEDRRSVRRCPFRHLGESVPDNPERFDSQPCVLGRESFASGKHYWEVEVENVIEWTVGVCRDSVERKGEVLLIPQNGFWTLEMHKGQYRAVSSPDRILPLKESLCRVGVFLDYEAGDVSFYNMRDRSHIYTCPRSAFSVPVRPFFRLGCEDSPIFICPALTGANGVTVPEEGLTLHRVGTHQSL
modifications: limits from PDB 5ZXK/8JYE entity without the C-terminal LEHHHHHH; paper number minus 295 = entity position
